Assay results published in PMC10540216, “Activity Guided Azide-methyllysine Photo-trapping for Substrate Profiling of Lysine Demethylases” (Journal of the American Chemical Society, 2023).

B1: DDX17_HUMAN (protein, UniProt Q92841 1-729, looked up)
Probable ATP-dependent RNA …: MPTGFVAPILCVLLPSPTREAATVASATGDSASERESAAPAAAPTAEAPPPSVVTRPEPQALPSPAIRAPLPDLYPFGTMRGGGFGDRDRDRDRGGFGARGGGGLPPKKFGNPGERLRKKKWDLSELPKFEKNFYVEHPEVARLTPYEVDELRRKKEITVRGGDVCPKPVFAFHHANFPQYVMDVLMDQHFTEPTPIQCQGFPLALSGRDMVGIAQTGSGKTLAYLLPAIVHINHQPYLERGDGPICLVLAPTRELAQQVQQVADDYGKCSRLKSTCIYGGAPKGPQIRDLERGVEICIATPGRLIDFLESGKTNLRRCTYLVLDEADRMLDMGFEPQIRKIVDQIRPDRQTLMWSATWPKEVRQLAEDFLRDYTQINVGNLELSANHNILQIVDVCMESEKDHKLIQLMEEIMAEKENKTIIFVETKRRCDDLTRRMRRDGWPAMCIHGDKSQPERDWVLNEFRSGKAPILIATDVASRGLDVEDVKFVINYDYPNSSEDYVHRIGRTARSTNKGTAYTFFTPGNLKQARELIKVLEEANQAINPKLMQLVDHRGGGGGGGGRSRYRTTSSANNPNLMYQDECDRRLRGVKDGGRRDSASYRDRSETDRAGYANGSGYGSPNSAFGAQAGQYTYGQGTYGAAAYGTSSYTAQEYGAGTYGASSTTSTGRSSQSSSQQFSGIGRSGQQPQPLMSQQFAQPPGATNMIGYMGQTAYQYPPPPPPPPPSRK
B2: CMTR1_HUMAN (protein, UniProt Q8N1G2 1-835, looked up)
Cap-specific mRNA …: MKRRTDPECTAPIKKQKKRVAELALSLSSTSDDEPPSSVSHGAKASTTSLSGSDSETEGKQHSSDSFDDAFKADSLVEGTSSRYSMYNSVSQKLMAKMGFREGEGLGKYSQGRKDIVEASSQKGRRGLGLTLRGFDQELNVDWRDEPEPSACEQVSWFPECTTEIPDTQEMSDWMVVGKRKMIIEDETEFCGEELLHSVLQCKSVFDVLDGEEMRRARTRANPYEMIRGVFFLNRAAMKMANMDFVFDRMFTNPRDSYGKPLVKDREAELLYFADVCAGPGGFSEYVLWRKKWHAKGFGMTLKGPNDFKLEDFYSASSELFEPYYGEGGIDGDGDITRPENISAFRNFVLDNTDRKGVHFLMADGGFSVEGQENLQEILSKQLLLCQFLMALSIVRTGGHFICKTFDLFTPFSVGLVYLLYCCFERVCLFKPITSRPANSERYVVCKGLKVGIDDVRDYLFAVNIKLNQLRNTDSDVNLVVPLEVIKGDHEFTDYMIRSNESHCSLQIKALAKIHAFVQDTTLSEPRQAEIRKECLRLWGIPDQARVAPSSSDPKSKFFELIQGTEIDIFSYKPTLLTSKTLEKIRPVFDYRCMVSGSEQKFLIGLGKSQIYTWDGRQSDRWIKLDLKTELPRDTLLSVEIVHELKGEGKAQRKISAIHILDVLVLNGTDVREQHFNQRIQLAEKFVKAVSKPSRPDMNPIRVKEVYRLEEMEKIFVRLEMKIIKGSSGTPKLSYTGRDDRHFVPMGLYIVRTVNEPWTMGFSKSFKKKFFYNKKTKDSTFDLPADSIAPFHICYYGRLFWEWGDGIRVHDSQKPQDQDKLSKEDVLSFIQMHRA
B3: GCSP_HUMAN (protein, UniProt P23378 36-1020, looked up)
Glycine dehydrogenase …: DSSSGGGDSAAAGASRLLERLLPRHDDFARRHIGPGDKDQREMLQTLGLASIDELIEKTVPANIRLKRPLKMEDPVCENEILATLHAISSKNQIWRSYIGMGYYNCSVPQTILRNLLENSGWITQYTPYQPEVSQGRLESLLNYQTMVCDITGLDMANASLLDEGTAAAEALQLCYRHNKRRKFLVDPRCHPQTIAVVQTRAKYTGVLTELKLPCEMDFSGKDVSGVLFQYPDTEGKVEDFTELVERAHQSGSLACCATDLLALCILRPPGEFGVDIALGSSQRFGVPLGYGGPHAAFFAVRESLVRMMPGRMVGVTRDATGKEVYRLALQTREQHIRRDKATSNICTAQALLANMAAMFAIYHGSHGLEHIARRVHNATLILSEGLKRAGHQLQHDLFFDTLKIQCGCSVKEVLGRAAQRQINFRLFEDGTLGISLDETVNEKDLDDLLWIFGCESSAELVAESMGEECRGIPGSVFKRTSPFLTHQVFNSYHSETNIVRYMKKLENKDISLVHSMIPLGSCTMKLNSSSELAPITWKEFANIHPFVPLDQAQGYQQLFRELEKDLCELTGYDQVCFQPNSGAQGEYAGLATIRAYLNQKGEGHRTVCLIPKSAHGTNPASAHMAGMKIQPVEVDKYGNIDAVHLKAMVDKHKENLAAIMITYPSTNGVFEENISDVCDLIHQHGGQVYLDGANMNAQVGICRPGDFGSDVSHLNLHKTFCIPHGGGGPGMGPIGVKKHLAPFLPNHPVISLKRNEDACPVGTVSAAPWGSSSILPISWAYIKMMGGKGLKQATETAILNANYMAKRLETHYRILFRGARGYVGHEFILDTRPFKKSANIEAVDVAKRLQDYGFHAPTMSWPVAGTLMVEPTESEDKAELDRFCDAMISIRQEIADIEEGRIDPRVNPLKMSPHSLTCVTSSHWDRPYSREVAAFPLPFVKPENKFWPTIARIDDIYGDQHLVCTCPPMEVYESPFSEQKRASS
B4: SF01_HUMAN (protein, UniProt Q15637 2-639, looked up)
Splicing factor 1: ATGANATPLDFPSKKRKRSRWNQDTMEQKTVIPGMPTVIPPGLTREQERAYIVQLQIEDLTRKLRTGDLGIPPNPEDRSPSPEPIYNSEGKRLNTREFRTRKKLEEERHNLITEMVALNPDFKPPADYKPPATRVSDKVMIPQDEYPEINFVGLLIGPRGNTLKNIEKECNAKIMIRGKGSVKEGKVGRKDGQMLPGEDEPLHALVTANTMENVKKAVEQIRNILKQGIETPEDQNDLRKMQLRELARLNGTLREDDNRILRPWQSSETRSITNTTVCTKCGGAGHIASDCKFQRPGDPQSAQDKARMDKEYLSLMAELGEAPVPASVGSTSGPATTPLASAPRPAAPANNPPPPSLMSTTQSRPPWMNSGPSESRPYHGMHGGGPGGPGGGPHSFPHPLPSLTGGHGGHPMQHNPNGPPPPWMQPPPPPMNQGPHPPGHHGPPPMDQYLGSTPVGSGVYRLHQGKGMMPPPPMGMMPPPPPPPSGQPPPPPSGPLPPWQQQQQQPPPPPPPSSSMASSTPLPWQQNTTTTTTSAGTGSIPPWQQQQAAAAASPGAPQMQGNPTMVPLPPGVQPPLPPGAPPPPPPPPPGSAGMMYAPPPPPPPPMDPSNFVTMMGMGVAGMPPFGMPPAPPPPPPQN
B5: MCM4_HUMAN (protein, UniProt P33991 2-863, looked up)
DNA replication licensing …: SSPASTPSRRGSRRGRATPAQTPRSEDARSSPSQRRRGEDSTSTGELQPMPTSPGVDLQSPAAQDVLFSSPPQMHSSAIPLDFDVSSPLTYGTPSSRVEGTPRSGVRGTPVRQRPDLGSAQKGLQVDLQSDGAAAEDIVASEQSLGQKLVIWGTDVNVAACKENFQRFLQRFIDPLAKEEENVGIDITEPLYMQRLGEINVIGEPFLNVNCEHIKSFDKNLYRQLISYPQEVIPTFDMAVNEIFFDRYPDSILEHQIQVRPFNALKTKNMRNLNPEDIDQLITISGMVIRTSQLIPEMQEAFFQCQVCAHTTRVEMDRGRIAEPSVCGRCHTTHSMALIHNRSLFSDKQMIKLQESPEDMPAGQTPHTVILFAHNDLVDKVQPGDRVNVTGIYRAVPIRVNPRVSNVKSVYKTHIDVIHYRKTDAKRLHGLDEEAEQKLFSEKRVELLKELSRKPDIYERLASALAPSIYEHEDIKKGILLQLFGGTRKDFSHTGRGKFRAEINILLCGDPGTSKSQLLQYVYNLVPRGQYTSGKGSSAVGLTAYVMKDPETRQLVLQTGALVLSDNGICCIDEFDKMNESTRSVLHEVMEQQTLSIAKAGIICQLNARTSVLAAANPIESQWNPKKTTIENIQLPHTLLSRFDLIFLLLDPQDEAYDRRLAHHLVALYYQSEEQAEEELLDMAVLKDYIAYAHSTIMPRLSEEASQALIEAYVDMRKIGSSRGMVSAYPRQLESLIRLAEAHAKVRLSNKVEAIDVEEAKRLHREALKQSATDPRTGIVDISILTTGMSATSRKRKEELAEALKKLILSKGKTPALKYQQLFEDIRGQSDIAITKDMFEEALRALADDDFLTVTGKTVRLL
B6: FUBP2_HUMAN (protein, UniProt Q92945 2-711, looked up)
Far upstream element-binding …: SDYSTGGPPPGPPPPAGGGGGAGGAGGGPPPGPPGAGDRGGGGPGGGGPGGGSAGGPSQPPGGGGPGIRKDAFADAVQRARQIAAKIGGDAATTVNNSTPDFGFGGQKRQLEDGDQPESKKLASQGDSISSQLGPIHPPPRTSMTEEYRVPDGMVGLIIGRGGEQINKIQQDSGCKVQISPDSGGLPERSVSLTGAPESVQKAKMMLDDIVSRGRGGPPGQFHDNANGGQNGTVQEIMIPAGKAGLVIGKGGETIKQLQERAGVKMILIQDGSQNTNVDKPLRIIGDPYKVQQACEMVMDILRERDQGGFGDRNEYGSRIGGGIDVPVPRHSVGVVIGRSGEMIKKIQNDAGVRIQFKQDDGTGPEKIAHIMGPPDRCEHAARIINDLLQSLRSGPPGPPGGPGMPPGGRGRGRGQGNWGPPGGEMTFSIPTHKCGLVIGRGGENVKAINQQTGAFVEISRQLPPNGDPNFKLFIIRGSPQQIDHAKQLIEEKIEGPLCPVGPGPGGPGPAGPMGPFNPGPFNQGPPGAPPHAGGPPPHQYPPQGWGNTYPQWQPPAPHDPSKAAAAAADPNAAWAAYYSHYYQQPPGPVPGPAPAPAAPPAQGEPPQPPPTGQSDYTKAWEEYYKKIGQQPQQPGAPPQQDYTKAWEEYYKKQAQVATGGGPGAPPGSQPDYSAAWAEYYRQQAAYYGQTPGPGGPQPPPTQQGQQQAQ
B7: U2AF2_HUMAN (protein, UniProt P26368 2-475, looked up)
Splicing factor U2AF 65 kDa …: SDFDEFERQLNENKQERDKENRHRKRSHSRSRSRDRKRRSRSRDRRNRDQRSASRDRRRRSKPLTRGAKEEHGGLIRSPRHEKKKKVRKYWDVPPPGFEHITPMQYKAMQAAGQIPATALLPTMTPDGLAVTPTPVPVVGSQMTRQARRLYVGNIPFGITEEAMMDFFNAQMRLGGLTQAPGNPVLAVQINQDKNFAFLEFRSVDETTQAMAFDGIIFQGQSLKIRRPHDYQPLPGMSENPSVYVPGVVSTVVPDSAHKLFIGGLPNYLNDDQVKELLTSFGPLKAFNLVKDSATGLSKGYAFCEYVDINVTDQAIAGLNGMQLGDKKLLVQRASVGAKNATLVSPPSTINQTPVTLQVPGLMSSQVQMGGHPTEVLCLMNMVLPEELLDDEEYEEIVEDVRDECSKYGLVKSIEIPRPVDGVEVPGCGKIFVEFTSVFDCQKAMQGLTGRKFANRVVVTKYCDPDSYHRRDFW
B8: SEPT9_HUMAN (protein, UniProt Q9UHD8 1-586, looked up)
Septin-9: MKKSYSGGTRTSSGRLRRLGDSSGPALKRSFEVEEVETPNSTPPRRVQTPLLRATVASSTQKFQDLGVKNSEPSARHVDSLSQRSPKASLRRVELSGPKAAEPVSRRTELSIDISSKQVENAGAIGPSRFGLKRAEVLGHKTPEPAPRRTEITIVKPQESAHRRMEPPASKVPEVPTAPATDAAPKRVEIQMPKPAEAPTAPSPAQTLENSEPAPVSQLQSRLEPKPQPPVAEATPRSQEATEAAPSCVGDMADTPRDAGLKQAPASRNEKAPVDFGYVGIDSILEQMRRKAMKQGFEFNIMVVGQSGLGKSTLINTLFKSKISRKSVQPTSEERIPKTIEIKSITHDIEEKGVRMKLTVIDTPGFGDHINNENCWQPIMKFINDQYEKYLQEEVNINRKKRIPDTRVHCCLYFIPATGHSLRPLDIEFMKRLSKVVNIVPVIAKADTLTLEERVHFKQRITADLLSNGIDVYPQKEFDEDSEDRLVNEKFREMIPFAVVGSDHEYQVNGKRILGRKTKWGTIEVENTTHCEFAYLRDLLIRTHMQNIKDITSSIHFEAYRVKRLNEGSSAMANGMEEKEPEAPEM

The molecules below were run on KDM4A-I71AzF (assay: CASI: photo-crosslinking with HEK293T cell extracts, StrepTactin enrichment and LC-MS/MS proteomics). Conditions: sheet "Final results but with 0.01".
Type: binding, human
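Further: lysates from HEK293T cells pretreated with a KDM4 inhibitor to raise proteome methylation, affinity-purified after ±UV, gel-resolved, trypsin-digested, with exclusive unique peptides per protein averaged per condition.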

Which “Fold change (+UV/-UV)” value does the source give for B1 here?
Its value is 1.

B2 was tested. Which “Fold change (+UV/-UV)” value did it give?
The value was 3.

For B3, which “Fold change (+UV/-UV)” value is on record?
The value was 6.

Which “Fold change (+UV/-UV)” value does the source give for B4 here?
The value was 0.9.

With B5 as the molecule, how does the “Fold change (+UV/-UV)” value read?
Its value is 0.5.

For B6, which “Fold change (+UV/-UV)” value is on record?
The value was 1.125.

B7 was tested. Which “Fold change (+UV/-UV)” value did it give?
The value was 2.

For B8, which “Fold change (+UV/-UV)” value is on record?
Its value is 0.6667.
